Measurements: article PMC11218372

What was measured:
[1] = biological target: CA8-PhoCA, carbonic anhydrase from Pyrococcus horikoshii (Py. horikoshii); test: SDS-PAGE; SEC fractions of the purified CA (Cobalt His-Pur, Superdex 75), NuPAGE 4-12% Bis-Tris gel
[2] = biological target: CA8-PhoCA, carbonic anhydrase from Pyrococcus horikoshii (Py. horikoshii); test: SDS-PAGE; cell lysates of E. coli overexpressing the CA, NuPAGE 4-12% Bis-Tris gel in MES buffer; CA7 expressed without additional Zn, CA8 with 0.5 mM ZnSO4
[3] = biological target: CA7-PabCA, carbonic anhydrase from Pyrococcus abyssi (Py. abyssi); test: SDS-PAGE; SEC fractions of the purified CA (Cobalt His-Pur, Superdex 75), NuPAGE 4-12% Bis-Tris gel
[4] = biological target: CA7-PabCA, carbonic anhydrase from Pyrococcus abyssi (Py. abyssi); test: SDS-PAGE; cell lysates of E. coli overexpressing the CA, NuPAGE 4-12% Bis-Tris gel in MES buffer; CA7 expressed without additional Zn, CA8 with 0.5 mM ZnSO4

Substance	stoichiometry N [1]	stoichiometry N [2]	stoichiometry N [3]	stoichiometry N [4]
CA8-PhoCA, carbonic anhydrase from Pyrococcus horikoshii (enzyme)	3	3		
CA7-PabCA, carbonic anhydrase from Pyrococcus abyssi (enzyme)			3	3
